This series concerns facial nerve of Lewis rats. Put plainly: Histological processing of muscle, mystacial pad and buccal branch nerve. Format: in vivo. The settings on record: mystacial pad, qualitative, 12-week endpoint. As for the experimental part: This study was performed on the facial nerve of Lewis rats (Charles River, Wilmington, MA). Institutional approval was obtained before performing the study, and all animal procedures and housing were performed under the guidelines of the University of Pittsburgh Institutional Animal Care and Use Committee and in compliance with animal experimentation ethics policies.
Surgical procedures. Rats were placed under general anesthesia and maintained with Isoflurane. Preauricular/buccal incision lines were marked (FIG. 8A) and the nerve branches were exposed (FIG. 8B). A 5 mm segment of the marginal mandibular branch was removed to prevent cross-innervation contribution to the whisker movement^41. The buccal branch was then transected, and the resultant 2 mm defect was primarily repaired with 9-0 nylon sutures. […]
Histological processing. […] For the muscles, the mean muscle fiber pixel area was calculated from brightfield staining. […] Cross-sections of the main buccal branch distal to the injury site were analyzed for the number of axons. For S100, sections of the nerve distal and proximal to the transection and repair site were quantified separately and the ratio was used for comparison. All samples were blinded before quantification.

We go through 1 molecule from patent publication US20250144275A1, “SYSTEM AND METHOD FOR COATING MEDICAL CONDUIT WITH PARTICLES AND USE THEREOF” (UNIVERSITY OF PITTSBURGH - OF THE COMMONWEALTH SYSTEM OF …, priority 2022, published 2025).

B1: GDNF: Recombinant human GDNF protein (R&D Systems), active agent of the microspheres (protein, UniProt P39905 78-211, looked up)
Glial cell line-derived …: SPDKQMAVLPRRERNRQAAAANPENSRGKGRRGQRGKNRGCVLTAIHLNVTDLGLGYETKEELIFRYCSGSCDAAETTYDKILKNLSRNRRLVSDKVGQACCRPIAFDDDLSFLDDNLVYHILRKHSAKRCGCI
modifications: in microspheres
On to B1, for which the “local adverse effects on whisker pad and intrinsic vibrissae muscles (morphology)” value is reported as “no local adverse effects”.
